Assay: soluble on expression in E. coli; label from the status in PepcDB or PDB records

Row | Sequence | soluble on expression in E. coli
1 | AAAMKLAYWMYAGPAHIGTLRIASSFKNVHGIMHAPLGDDYFNVMRSMLERERDFTPVTASIVDRHVLARGSQEKVVDNIIRKDTEEHPDLIVLTPTCTSSILQEDLQNFVRRASLSTTADVLLADVNHYRVNELQAADRTLEQIVQFYIDKARRQGTLGTSKTPTPSVNIIGITTLGFHNQHDCRELKQLMADLGIQVNLVIPAAATVHDLQRLPQAWFNLVPYREIGGLTAQYLEREFGQPSVRITPMGVVETARCIRAIQGVLNAQGAGVNYEAFIEQQTREVSQAAWFSRSIDCQNLTGKKAVVFGDNTHAAAMTKILSREMGIHVVWAGTYCKYDADWFRAEVAGFCDEVLITDDHTVVGDAIARVEPAAIFGTQMERHVGKRLNIPCGVIAAPIHIQDFPVGYRPFLGYEGTNQLVDLIYNSFTLGMEDHLLEIFGGHDTKAVIHKGLSADSDLTWTAAGLAELNKIPGFVRGKVKRNTEKFAREQGISEITVEVLYAAKEAVGA | soluble
2 | AAPFDVTAPQEPVLALVGSDAELTCGFSPNASSEYMELLWFRQTRSTAVLLYRDGQEQEGQQMTEYRGRATLATAGLLDGRATLLIRDVRVSDQGEYRCLFKDNDDFEEAAVYLKVAAVGSDPQISMTVQENGEMELECTSSGWYPEPQVQWRTGNREMLPSTSESKKHNEEGLFTVAVSMMIRDSSIKNMSCCIQNILLGQGKEVEISLPAPFVPRLTPW | not soluble
3 | AATSRDALPNTEASGPTHSKEIPALTAVETGATNPLVPSDTVQTRHVVQHRSRSESSIESFFARGACVTIMTVDNPASTTNKDKLFAVWKITYKDTVQLRRKLEFFTYSRFDMELTFVVTANFTETNNGHALNQVYQIMYVPPGAPVPEKWDDYTWQTSSNPSIFYTYGTAPARISVPYVGISNAYSHFYDGFSKVPLKDQSAALGDSLYGAASLNDFGILAVRVVNDHNPTKVTSKIRVYLKPKHIRVWCPRPPRAVAYYGPGVDYKDGTLTPLSTKDLTTY | soluble
4 | ADQPIDADVTVIGSGPGGYVAAIKAAQLGFKTVCIEKNETLGGTCLNVGCIPSKALLNNSHYYHMAHGTDFASRGIEMSEVRLNLDKMMEQKSTAVKALTGGIAHLFKQNKVVHVNGYGKITGKNQVTATKADGGTQVIDTKNILIATGSEVTPFPGITIDEDTIVSSTGALSLKKVPEKMVVIGAGVIGVELGSVWQRLGADVTAVEFLGHVGGVGIDMEISKNFQRILQKQGFKFKLNTKVTGATKKSDGKIDVSIEAASGGKAEVITCDVLLVCIGRRPFTKNLGLEELGIELDPRGRIPVNTRFQTKIPNIYAIGDVVAGPMLAHKAEDEGIICVEGMAGGAVHIDYNCVPSVIYTHPEVAWVGKSEEQLKEEGIEYKVGKFPFAANSRAKTNADTDGMVKILGQKSTDRVLGAHILGPGAGEMVNEAALALEYGASCEDIARVCHAHPTLSEAFREANLAASFGKSINF | soluble
5 | AEESSKAVKYYTLEEIQKHNNSKSTWLILHYKVYDLTKFLEEHPGGEEVLREQAGGDATENFEDVGHSTDARELSKTFIIGELHPDDRSKITKPSESIITTIDS | soluble
6 | AELLLGVNIDHIATLRNARGTAYPDPVQAAFIAEQAGADGITVHLREDRRHITDRDVRILRQTLDTRMNLEMAVTEEMLAIAVETKPHFCCLVPEKRQEVTTEGGLDVAGQRDKMRDACKRLADAGIQVSLFIDADEEQIKAAAEVGAPFIEIHTGCYADAKTDAEQAQELARIAKAATFAASLGLKVNAGHGLTYHNVKAIAAIPEMHELNIGHAIIGRAVMTGLKDAVAEMKRLMLEARG | soluble
7 | AETIVMASTTSTEQSGLFGHLLPAFKKASGIDIKVVAQGTGQALDMARRGDADVLFVHDQVAEEKFVADGYAVKRYPVMYNDFILVGPAKDPAGVKGNDIVAALGKLAKDNADFISRGDKSGTHAAELRFWKQTGSDSKGSGYKECGCGMGPALNMGSSMNAYVLSDRGTWLSFKNPGELKILVEGDKRLFNQYGVMVVNPAKFPHVKAKAAQQFVDWVTSKAGQDAIASYQV | not soluble
8 | AETVESCLAKSHTENSFTNVWKDDKTLDRYANYEGCLWNATGVVVCTGDETQCYGTWVPIGLAIPENEGGGSEGGGSEGGGSEGGGDDIFGELSSGKNAPKTGGGAKGNNASPAGSGNTKNNGASGADINNYAGQIKSAIESKFYDASSYAGKTCTLRIKLAPDGMLLDIKPEGGDPALCQAALAAAKLAKIPKPPSQAVYEVFKNAPLDFKPAAAHHHHHH | soluble
9 | AEVYNKDGNKLDLYGKVDGLHYFSDDKSVDGDQTYMRLGFKGETQVTDQLTGYGQWEYQIQGNAPESENNSWTRVAFAGLKFQDIGSFDYGRNYGVVYDVTSWTDVLPEFGGDTYGSDNFMQQRGNGFATYRNTDFFGLVDGLNFAVQYQGQNGSVSGENDPDFTGHGITNNGRKALRQNGDGVGGSITYDYEGFGVGAAVSSSKRTWDQNNTGLIGTGDRAETYTGGLKYDANNIYLAAQYTQTYNATRVGSLGWANKAQNFEAVAQYQFDFGLRPSVAYLQSKGKNLGVVAGRNYDDEDILKYVDVGATYYFNKNMSTYVDYKINLLDDNQFTRAAGINTDDIVALGLVYQF | soluble
10 | AGPGAEEEQLDTAEIAFQVKEQLLKHNIGQRVFGHYVLGLSQGSVSEILARPKPWRKLTVKGKEPFIKMKQFLSDEQNVLALRTIQVR | soluble
11 | AHHHHHHGSAELWEIVSFLDEYLKISEYPDKSSNGLQVEGKEEVNTIAFAVDACLDTIVKARAFNADMLIVHHGLIWGGVKYVKGLFAKRVKELLKSNMNLYAAHLPLDAHPEVGNNAQLLKLLGLEPKEKFGEYHGVMIGYIGEFEEEKPLPLIAQMLAEKLPVDYVKSYEFGVQEIKRVGVVSGGGGFAVEEASEKGVDLFITGEFTHEDYRAAEDLRLSVIAAGHYATETLGVKALMPILREKFGVKTIFIDSPTGL | not soluble
12 | AHHHHHHGSAGVRLVDVWKVFGEVTAVRELSLEVKDGEFMILLGPSGCGKTTTLRMIAGLEEPSRGQIYIGDRLVADPEKGIFVPPKDRDIAMVFQSYALYPHMTVYDNIAFPLKLRKVPRQEIDQRVREVAELLGLTELLNRKPRELSGGQRQRVALGRAIVRKPQVFLMDEPLSNLDAKLRVRMRAELKKLQRQLGVTTIYVTHDQVEAMTMGDRIAVMNGGVLQQVGSPDEVYDKPANTFVAGFIGSPPMNFLDAIVTEDGFVDFGEFRLKLLPDQFEVLGELGYVGREVIFGIRPEDLYDAMFARVRVPGENLVRAVVEIVENLGSERIVHLRVGGVTFVGAFRSESRVREGVEVDVVFDMKKIHIFDKTTGKAIF | soluble
13 | AHHHHHHGSDCGKDYCVKDLSLAEEGWKKIDWVSRFMPVLQYIKREFEEKKPFKGVRIAATLHLEMKTAFLLLTLKAGGAEVSAAASNPLSTQDDVVAALAKAGVKVYAIRGESREQYYEFMHKALDIRPNIIIDDGADMISLVHKERQEMLDEIWGGSEETTTGVIRLRAMEKAGILKFPVIAVNDSYMKYLFDNRYGTGQSTWDGIMRATNLLIAGKNVVVVGYGWCGRGIAMRARGLGATVIVVEVDPIKALEARMDGFLVMDMKEAAKIGDIFVTATGNIKCIRREHFELMKDGAIMANAGHFDVEIWKPDLEKLAVEINNPRPNVTEYKLKDGRRLYLLADGRLVNLVAADGHPAEIMDMSFALQAKAAEYIKDNHERLEPKVYILPREIDEMVARIKLESMGIKIEELTEEQKKYLESWEHGT | soluble
14 | AHHHHHHGSFPHEEKLIREKLGREPNDLEKAMLEVMWSEHVSYKSSRKWLKLLPTKNEHVILGPGEDAGIIKFDDKTWIVIGIESHNHPSAVEPYGGAATGVGGIVRDILCMGARPIALLDPIRFGPLEKEKNRYLFEYVVKGIADYGNRIGVPTVGGETEFDESLDNYTLVNVACIGIMRPEHLVHSYVTEPGLKLVIVGNRTGRDGIHGVTFASEELGENAEEEDRSAVQIPDPFTEKLLIEATLEAVYTGKVKALKDLGGGGLTCAASEMVGKRGFGAIIYADKVPLREPGMTPLEVMISESQERMLFAIKPEDVEELGKIFEKYELEWSVVGEVIEEPKFIVYWKGRKVAELPIELLTNVPTIEWPMKEYRIEEDVETPQISLEEAFEKVWRSPNVISKRWVWEQYDHEVQGRTVIKPGFDSAVLKINEEYGLAITADGNPTHCYLNPYHGAMGVVVEVVRNLVSVGAKPLALVDNLNFASPERPEVYWSFVETIKGLADAAKAFGLAYVSGNVSFYNEVVNKPVKPTPVVAGVGKVKLEKIPRGPREGDLIGLIGETRKELGGSELYRVLGVSKGIAPRVDLEVEKRNAESVLKLIEEGLVSFVHDVSRGGVAVALAELSTWFNVGIKSEITTSLLPLDFAFSESHGRYIVTFPEENLEAVKKIAPITLLGRIGGEKFELKINGEKVSKTVKWLSDVHWNELYRIMD | not soluble
15 | AHHHHHHGSIEVRFHGRGGQGAVTAANILAEAAFLEGKYVQAFPFFGVERRGAPVTAFTRIDNKPIRIKTQIYEPDVVVVLDPSLLDAVDVTAGLKDEGIVIVNTEKSKEEVLEKLKKKPKKLAIVDATTIALEILGLPITNTAILGAVAKATGLVKIESIEEAIKDTFSGELGEKNARAAREAYEKTEVFEL | soluble
16 | AHHHHHHGSIKLRDELGTATTDSAQKILLLGSGELGKEIAIEAQRLGVEVVAVDRYANAPAMQVAHRSYVGNMMDKDFLWSVVEREKPDAIIPEIEAINLDALFEFEKEGYFVVPNAKATWIAMHRERLRETLVKEAKVPTSRYMYATTLDELYEACEKIGYPCHTKAIMSSSGKGSYFVRGPEDIPKAWEEAKTKARGSAEKIIVEEHIDFDVEITELAVRHFDENGEIVTTFPKPVGHYQIDGDYHASWQPAEISEKAEREVYRIAKRITDVLGGLGLFGVEMFVKGDKVWANEVSPRPHDTGMVTLASHPPGFSEFGLHLRAVLGLPIPGEWVDGYRLFPMLIPAATHVIKAKVSGYSPRFRGLAKALSVPNATIRLFGKPEAYPGRRLGVVLAWDKDVQEAKKRAEMVAHMIELRTRSSDWHSQDYEKRKHLL | soluble
17 | AHHHHHHGSKIKVGINGYGTIGKRVAYAVTKQDDMELIGVTKTKPDFEAYRAKELGIPVYAASEEFLPRFEKAGFEVEGTLNDLLEKVDIIVDATPGGMGEKNKQLYEKAGVKAIFQGGEKAEVAQVSFVAQANYEAALGKDYVRVVSCNTTGLVRTLNAIKDYVDYVYAVMIRRAADPNDIKRGPINAIKPSVTIPSHHGPDVQTVIPINIETSAFVVPTTIMHVHSIMVELKKPLTREDVIDIFENTTRVLLFEKEKGFESTAQLIEFARDLHREWNNLYEIAVWKESINVKGNRLFYIQAVHQESDVIPENIDAIRAMFEIAEKWESIKKTNKSLGILK | soluble
18 | AHHHHHHGSKVVIVGNGPGGFELAKQLSQTYEVTVIDKEPVPYYSKPMLSHYIAGFIPRNRLFPYSLDWYRKRGIEIRLAEEAKLIDRGRKVVITEKGEVPYDTLVLATGARAREPQIKGKEYLLTLRTIFDADRIKESIENSGEAIIIGGGFIGLELAGNLAEAGYHVKLIHRGAMFLGLDEELSNMIKDMLEETGVKFFLNSELLEANEEGVLTNSGFIEGKVKICAIGIVPNVDLARRSGIHTGRGILIDDNFRTSAKDVYAIGDCAEYSGIIAGTAKAAMEQARVLADILKGEPRRYNFKFRSTVFKFGKLQIAIIGNTKGEGKWIEDNTKVFYENGKIIGAVVFNDIRKATKLEKEILDFYS | soluble
19 | AHHHHHHGSPRLIKDRVPTPERSVGERVRDFGEVNLGYSWELALREAERCLQCPVEYAPCIKGCPVHINIPGFIKALRENRDNPSKAVREALRIIWRDNTLPAITGRVCPQEEQCEGACVVGKVGDPINIGKLERFVADYAREHGIDDELLLEEIKGIKRNGKKVAIIGAGPAGLTCAADLAKMGYEVTIYEALHQPGGVLIYGIPEFRLPKEIVKKELENLRRLGVKIETNVLVGKTITFEELREEYDAIFIGTGAGTPRIYPWPGVNLNGIYSANEFLTRINLMKAYKFPEYDTPIKVGKRVAVIGGGNTAMDAARSALRLGAEVWILYRRTRKEMTAREEEIKHAEEEGVKFMFLVTPKRFIGDENGNLKAIELEKMKLGEPDESGRRRPIPTGETFIMEFDTAIIAIGQTPNKTFLETVPGLKVDEWGRIVVDENLMTSIPGVFAGGDAIRGEATVILAMGDGRKAAKAIHQYLSKEK | soluble

From the DeepSol protein solubility set
